Here are results for three molecules from patent publication US6881719B2, “β-turn peptidomimetic cyclic compounds” (McGill University, priority 2000, dated 2005).

Data set [1] has as its target p75 NGF receptor on B104 rat neuroblastoma cells and 4-3.6 cells (rat) (UniProt P07174). The data set is described as follows: FACScan, B104 cells (p75+ TrkA-), avidin-FITC.
Data set [2] addresses human TrkA expressed on transfected cells (4-3.6 cells; NIH3T3-TrkA cells) (human) (UniProt P04629). The data set is described as follows: FACScan, 4-3.6 cells, avidin-FITC.
Data set [3] shares this target. The data set is described as follows: FACScan, 4-3.6 cells (p75+ TrkA+), avidin-FITC.
The subject of data set [4] is wild type NIH3T3 fibroblasts. The data set is described as follows: Cell survival (MTT), NIH wt. The format is cell-based. The note with it: 72 hours. From the text:
(§1) The 4-3.6 cells are B104 cells stably transfected with human trkA cDNA, and express equal levels of p75 and TrkA (TrkA+ p75+). For screening agents that activate or antagonize TrkC receptors, NIH3T3 fibroblasts were stably transfected with human TrkC cDNA. These cells respond to the ligand NT-3. For screening agents that activate or antagonize TrkA receptors, NIH3T3 fibroblasts were stably transfected with human TrkA cDNA. These cells respond to the ligand NGF.
(§2) Cell lines: 5,000 cells/well in protein-free media (PFHM-II, GIBCO, Toronto) containing 0.2% bovine serum albumin (BSA) (Crystalline fraction V, Sigma, St. Louis, Mo.) were seeded in 96 well plates (Falcon, Mississauga, Ontario). The cultures were untreated, or treated with the indicated test or control ligands. Cell viability was quantitated using the MTT assay after 56-72 hours of culture. […] The OD of untreated cells were subtracted. The higher optical density of untreated primary cultures is likely due to cellular heterogeneity and to endogenous production of limiting amounts of growth factors.

Data set [5] can be described thus: Proteolytic stability, then trophic assay on 4-3.6 cells. The note with it: exposure to trypsin or pepsin (D3: 1 hour).
Procedure: The proteolytic stability of D3 versus trypsin and papain was assessed. D3 was first exposed to enzymatic treatment as described previously (Saragovi et al., 1992), followed by gauging its biological activity on 4-3.6 cells.
Data set [6] deals with embryonic rat DRG primary neuronal cultures. The data set is described as follows: Cell survival (MTT), primary DRG cultures.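 For % Protection: 100% equals survival with optimal NGF at 1 nM.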 The format is cell-based. The conditions noted are these: 8 days. How it is done: Fetal rat DRG primary cultures were established from Sprague Dawley day 17 rat embryos. All ganglia were dissected and dissociated first enzymatically with trypsin and then mechanically. Dissociated cells were cultured (10^5 cells/well) in 96 well plates pre-coated with collagen, and grown for a total of 8 days in Neuro Basal Medium containing N2 supplement (GIBCO, Toronto), antibiotics, and L-glutamine. These DRG cultures are ˜85% TrkA-expressing and are heavily dependent on TrkA signals for survival.
Primary DRG cultures: After a total of 8 days of culture with the indicated test or control ligands, cell survival were studied using the 3(4,5-Dimethylthiazolyl-2)-2,5-diphenyl tetrazolium bromide colorimetric (MTT) assay, and by microscopic observation.
as §2

The test system of another data set is wild type HEK293 cells. The data set is described as follows: Cell survival control, wild type HEK293 cells. Type of data set: cell-based. How it is done: as §2
Data set [7] deals with T1, NIH3T3 fibroblasts expressing TrkC (Homo sapiens, UniProt Q16288).
T1 construct: expressed in transfected cells; host or cells: NIH3T3 fibroblasts
T1 sequence (Q16288 32-839): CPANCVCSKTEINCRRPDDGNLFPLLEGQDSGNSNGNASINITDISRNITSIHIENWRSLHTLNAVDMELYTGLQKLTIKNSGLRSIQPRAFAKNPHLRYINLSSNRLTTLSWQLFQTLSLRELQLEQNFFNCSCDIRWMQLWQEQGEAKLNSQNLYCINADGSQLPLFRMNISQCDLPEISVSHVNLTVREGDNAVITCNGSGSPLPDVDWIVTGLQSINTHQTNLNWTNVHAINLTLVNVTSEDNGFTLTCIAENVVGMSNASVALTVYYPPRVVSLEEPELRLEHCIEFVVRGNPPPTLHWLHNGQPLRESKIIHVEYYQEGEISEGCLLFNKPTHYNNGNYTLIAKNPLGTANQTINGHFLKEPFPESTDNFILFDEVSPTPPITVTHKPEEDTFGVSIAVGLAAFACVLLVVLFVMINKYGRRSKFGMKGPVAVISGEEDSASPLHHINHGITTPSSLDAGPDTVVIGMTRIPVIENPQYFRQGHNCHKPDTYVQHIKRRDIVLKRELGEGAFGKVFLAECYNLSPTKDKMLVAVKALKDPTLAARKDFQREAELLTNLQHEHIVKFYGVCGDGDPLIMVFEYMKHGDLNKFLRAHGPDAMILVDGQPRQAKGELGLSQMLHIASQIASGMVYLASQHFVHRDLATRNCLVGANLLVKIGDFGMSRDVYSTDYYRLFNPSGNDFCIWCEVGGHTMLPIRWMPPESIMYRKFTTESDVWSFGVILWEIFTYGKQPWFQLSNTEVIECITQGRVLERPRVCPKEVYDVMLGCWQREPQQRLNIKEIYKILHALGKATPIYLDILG
Nature of the data set: Cell survival (MTT), NIH-TrkC. Type of data set: cell-based. The conditions noted are these: 72 hours.
Text: as §1, §2

The subject of the next data set is septal neuronal cultures. Nature of the data set: ChAT activity in septal neuronal cultures. The format is cell-based, rat. The note with it: day 8. How it is done: Cell cultures were established from the septal area of 17-day-old rat embryos. In brief, tissue was incubated in PBS containing trypsin and DNase. Tissue pieces then were mechanically dissociated. After centrifugation, the pellet was suspended in Leibovitz's L-15 medium. Cells were plated onto 96-multiwell NUNC dishes (10^5 cells/well) coated with poly-D-lysine (5 μg/ml). Pure cultures of septal neurons were treated 1 day after plating. Drugs, prepared in medium, were added directly to the cells without changing the initial medium. The incubation continued for 8 days, at which time ChAT activity was evaluated.
At day 8 of culture, the medium was aspirated, and ice-cold lysis buffer (10 mM sodium phosphate, pH 7.4/0.1% TritonX-100—Trade-mark) was added. ChAT activity assays were performed directly in the wells using Fonnum's method (Fonnum, 1975).

The test system of data set [8] is TrkB-expressing HEK293 cells. The data set is described as follows: Cell survival control, TrkB-expressing HEK293 cells. The format is cell-based. The method, then:
as §2

For another data set, the system named is B104 cells. The data set is described as follows: Cell survival control, B104 cells. Type of data set: cell-based, rat.
Text: as §1, §2

Data set [9] has as its target human TrkA expressed on transfected cells (4-3.6 cells; NIH3T3-TrkA cells) (human) (UniProt P04629). The data set is described as follows: estimated from FACScan competition against mAb 5C3 on 4-3.6 cells.
The target of data set [10] is recombinant baculovirus TrkA-extracellular domain protein (TrkA-ECD) (UniProt P04629). The data set is described as follows: competition ELISA, mAb 5C3 2 nM on immobilized TrkA-ECD, competitor D3 20 µM. A general note: ELISA stands for enzyme-linked immunosorbent assay.
recombinant baculovirus TrkA-extracellular domain protein (TrkA-ECD), sequence (P04629 33-423 limits assumed): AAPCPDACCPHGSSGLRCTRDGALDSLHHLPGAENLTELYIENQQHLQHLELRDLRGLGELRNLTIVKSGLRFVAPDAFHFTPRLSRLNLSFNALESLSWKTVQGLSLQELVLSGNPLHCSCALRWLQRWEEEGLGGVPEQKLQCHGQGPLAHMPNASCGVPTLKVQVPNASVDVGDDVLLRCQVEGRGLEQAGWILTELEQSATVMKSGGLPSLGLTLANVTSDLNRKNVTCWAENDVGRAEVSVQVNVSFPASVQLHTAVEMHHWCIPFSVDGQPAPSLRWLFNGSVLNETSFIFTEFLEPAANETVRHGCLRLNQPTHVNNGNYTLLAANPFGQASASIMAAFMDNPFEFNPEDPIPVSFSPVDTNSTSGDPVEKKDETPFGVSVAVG
In data set [11] the target is human TrkA expressed on transfected cells (4-3.6 cells; NIH3T3-TrkA cells) (human) (UniProt P04629). Nature of the data set: FACScan competition, 4-3.6 cells, mAb 5C3 1 nM, competitor D3 40 µM.
human TrkA expressed on transfected cells (4-3.6 cells; NIH3T3-TrkA cells) (human), sequence (P04629 33-796): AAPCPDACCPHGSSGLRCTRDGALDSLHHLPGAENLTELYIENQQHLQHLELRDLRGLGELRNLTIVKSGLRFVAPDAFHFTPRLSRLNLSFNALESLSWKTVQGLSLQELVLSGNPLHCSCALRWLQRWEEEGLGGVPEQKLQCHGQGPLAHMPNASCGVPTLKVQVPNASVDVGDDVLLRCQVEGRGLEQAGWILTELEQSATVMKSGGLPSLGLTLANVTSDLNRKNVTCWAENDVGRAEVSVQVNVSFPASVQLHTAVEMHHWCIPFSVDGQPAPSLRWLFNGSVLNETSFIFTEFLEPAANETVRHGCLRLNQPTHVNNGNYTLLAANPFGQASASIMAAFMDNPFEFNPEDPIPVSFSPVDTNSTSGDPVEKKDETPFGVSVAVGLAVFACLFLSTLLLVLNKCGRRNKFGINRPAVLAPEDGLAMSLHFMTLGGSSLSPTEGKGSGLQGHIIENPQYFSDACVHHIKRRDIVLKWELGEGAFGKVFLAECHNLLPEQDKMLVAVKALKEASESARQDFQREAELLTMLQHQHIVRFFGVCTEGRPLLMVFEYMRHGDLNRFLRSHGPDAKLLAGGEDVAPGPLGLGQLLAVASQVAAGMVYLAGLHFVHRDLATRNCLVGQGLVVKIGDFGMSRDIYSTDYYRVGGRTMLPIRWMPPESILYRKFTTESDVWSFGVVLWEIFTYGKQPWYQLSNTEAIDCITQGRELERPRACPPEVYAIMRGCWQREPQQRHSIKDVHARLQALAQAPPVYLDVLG
Data set [12] has the same target. The data set is described as follows: FACScan competition, 4-3.6 cells, mAb 5C3 1 nM, competitor D3 5 µM.
In data set [13] the target is recombinant baculovirus TrkA-extracellular domain protein (TrkA-ECD) (UniProt P04629). The data set is described as follows: competition ELISA, mAb 5C3 2 nM on immobilized TrkA-ECD, competitor D3 1 µM.
The target of data set [14] is human TrkA expressed on transfected cells (4-3.6 cells; NIH3T3-TrkA cells) (human) (UniProt P04629). The data set is described as follows: FACScan, 4-3.6 cells (p75+ TrkA+), D3-biotin 20 µM with 10-fold molar excess of D3, avidin-FITC.
For data set [15] the target is unchanged. Nature of the data set: FACScan competition, 4-3.6 cells, mAb 5C3 1 nM, competitor D3 0.20 µM.
The target of data set [16] is recombinant baculovirus TrkA-extracellular domain protein (TrkA-ECD) (UniProt P04629). The data set is described as follows: competition ELISA, mAb 5C3 2 nM on immobilized TrkA-ECD, competitor D3 5 µM.
In data set [17] the target is human TrkA expressed on transfected cells (4-3.6 cells; NIH3T3-TrkA cells) (human) (UniProt P04629). Nature of the data set: FACScan competition, 4-3.6 cells, mAb 5C3 1 nM, competitor D3 1 µM.
Data set [18] deals with recombinant baculovirus TrkA-extracellular domain protein (TrkA-ECD) (UniProt P04629). The data set is described as follows: competition ELISA, mAb 5C3 2 nM on immobilized TrkA-ECD, competitor D3 0.2 µM.
Data set [19] has as its target p75 NGF receptor on B104 rat neuroblastoma cells and 4-3.6 cells (rat) (UniProt P07174). The data set is described as follows: FACScan, B104 cells (p75+ TrkA-), D3-biotin 20 µM with 10-fold molar excess of D3, avidin-FITC.
The target of data set [20] is recombinant baculovirus TrkA-extracellular domain protein (TrkA-ECD) (UniProt P04629). The data set is described as follows: competition ELISA, mAb 5C3 2 nM on immobilized TrkA-ECD, competitor D3 0.05 µM.
For data set [21] the target is unchanged. Nature of the data set: competition ELISA, mAb 5C3 2 nM on immobilized TrkA-ECD, competitor D3 40 µM.
Data set [22] shares this target. The data set is described as follows: calculated from competition ELISA against mAb 5C3 on immobilized TrkA-ECD.
The target of data set [23] is TrkA on primary rat embryonic neurons (DRG and septal cultures) (rat, UniProt P35739 33-799). The data set is described as follows: cell-based or functional assay.
TrkA on primary rat embryonic neurons (DRG and septal cultures), sequence (P35739 33-799): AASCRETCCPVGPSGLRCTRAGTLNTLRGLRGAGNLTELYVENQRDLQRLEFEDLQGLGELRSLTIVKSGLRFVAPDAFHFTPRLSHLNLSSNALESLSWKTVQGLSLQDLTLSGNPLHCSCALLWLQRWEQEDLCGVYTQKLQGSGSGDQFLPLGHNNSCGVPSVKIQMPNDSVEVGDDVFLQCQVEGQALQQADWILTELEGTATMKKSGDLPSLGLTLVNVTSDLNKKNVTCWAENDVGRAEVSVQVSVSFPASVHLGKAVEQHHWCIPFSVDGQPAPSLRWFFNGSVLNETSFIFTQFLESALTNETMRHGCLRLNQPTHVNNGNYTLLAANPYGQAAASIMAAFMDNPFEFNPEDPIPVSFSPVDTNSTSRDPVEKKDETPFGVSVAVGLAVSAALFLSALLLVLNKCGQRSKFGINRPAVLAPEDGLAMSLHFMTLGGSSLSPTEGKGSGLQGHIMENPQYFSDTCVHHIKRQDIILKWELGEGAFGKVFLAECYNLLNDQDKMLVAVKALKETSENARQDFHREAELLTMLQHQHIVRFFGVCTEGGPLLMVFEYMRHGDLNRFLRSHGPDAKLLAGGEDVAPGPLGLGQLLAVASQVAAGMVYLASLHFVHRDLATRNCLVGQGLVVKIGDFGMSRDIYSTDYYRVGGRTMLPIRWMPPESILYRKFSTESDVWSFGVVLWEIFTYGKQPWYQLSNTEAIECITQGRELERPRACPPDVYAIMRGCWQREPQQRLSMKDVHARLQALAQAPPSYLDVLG
The target of data set [24] is human TrkA expressed on transfected cells (4-3.6 cells; NIH3T3-TrkA cells) (human) (UniProt P04629). The data set is described as follows: cell-based or functional assay.
The target in data set [25] is p75 NGF receptor on B104 rat neuroblastoma cells and 4-3.6 cells (rat) (UniProt P07174). Nature of the data set: FACScan competition, 4-3.6 cells, mAb MC192 1 nM, competitor D3 40 µM.
p75 NGF receptor on B104 rat neuroblastoma cells and 4-3.6 cells (rat), sequence (P07174 30-425): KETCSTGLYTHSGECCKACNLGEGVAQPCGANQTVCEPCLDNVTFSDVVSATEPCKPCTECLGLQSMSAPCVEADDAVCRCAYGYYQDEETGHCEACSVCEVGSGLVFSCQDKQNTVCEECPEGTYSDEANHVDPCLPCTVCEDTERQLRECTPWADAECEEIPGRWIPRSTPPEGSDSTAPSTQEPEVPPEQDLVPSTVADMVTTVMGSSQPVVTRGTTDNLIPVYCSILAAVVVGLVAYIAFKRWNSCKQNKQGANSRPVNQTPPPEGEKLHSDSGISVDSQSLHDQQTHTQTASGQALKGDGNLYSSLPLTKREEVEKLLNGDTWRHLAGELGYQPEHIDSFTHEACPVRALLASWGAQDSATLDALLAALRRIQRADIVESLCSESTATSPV

“And” between values parts separate entries of the source, which are not always exact repeats. Equal entries are not always repeated. Positions of bridges follow the written chain, without caps; N, C: chain ends. Non-standard residues stand in square brackets, D forms with d. 5‑nitrobenzoyl = N-terminal 5-nitrobenzoyl group, introduced by coupling 2-fluoro-5-nitrobenzoyl chloride; hSer = N[C@@H](CCO)C(=O)O

Regarding “D3-biotin (biotin derivative of D3) (peptide)”, the MCF worked out at 10 MCF in [1] and 53 MCF in [3]. For the same molecule, the fold fluorescence over control peptide-biotin in data set [2] turned out to be 4 fold.

“NGF: neurotrophin nerve growth factor, natural ligand of TrkA”: the “NIH wt % Protection” value is 5 ± 7% and 3 ± 5% in data set [4] (10 pM NGF); 5 ± 12% and 4 ± 6% in [4] (1 nM NGF). Further, the “biological activity in trophic assays after enzymatic treatment” value in data set [5] is “lost all activity within minutes”. The “% Protection” value in [6] (NGF 20 pM) turned out to be 9 ± 1%; in data set [6] (NGF 500 pM) it was 68 ± 3%; in data set [6] (NGF 1 nM, relative to 1 nM NGF), 100 ± 4%. The entries for the “Optical Density” value in data set [6] (NGF 20 pM), in data set [6] (NGF 500 pM) and in [6] (NGF 1 nM) were 316 ± 11, 535 ± 19 and 823 ± 28, respectively. Further, the protection from apoptosis result (in the data set with wild type HEK293 cells; in [8]; in the data set on B104 cells) was “neither D3 nor NGF protected” each time. Moreover, the “NIH-TrkC % Protection” value in data set [7] (10 pM NGF) was 2 ± 4%; in data set [7] (1 nM NGF), 5 ± 6%. In addition, the entries for the “ChAT Activity” value in the data set with septal neuronal cultures (10 pM NGF) and with septal neuronal cultures (400 pM NGF) were 0.42 ± 0.07 pmol Ach/min/well and 0.72 ± 0.10 pmol Ach/min/well, respectively.

Usually Kd stands for the constant that tells how readily two partners part at equilibrium. Regarding {5‑nitrobenzoyl}-EK[hSer]G-OH (bridge N-3) [D3 (EKHse-G-OH), β-turn peptidomimetic cyclic compound], the Kd in data set [9] was 2000 nM. Also, the % Binding of mAb 5C3 in data set [10] worked out at 38%. This molecule had a % Maximal binding of mAb 5C3 in data set [11] of 33%. This molecule also yielded a % Maximal binding of mAb 5C3 in [12] of 53%. In addition, the % Binding of mAb 5C3 in data set [13] is 64%. In data set [14], the MCF of D3-biotin in the presence of competitor D3 came out at 17 MCF. In data set [15], this molecule registered a % Maximal binding of mAb 5C3 of 95%. Further, in data set [16], the % Binding of mAb 5C3 was determined as 43%. In data set [17], this molecule showed a % Maximal binding of mAb 5C3 of 80%. Further, the % Binding of mAb 5C3 in data set [18] came out at 89%. The MCF of D3-biotin in the presence of competitor D3 in data set [19] worked out at 11 MCF. In [20], the % Binding of mAb 5C3 is 100%. For the same molecule, in data set [21], the % Binding of mAb 5C3 is 31%. Further, the Kd in data set [22] is 2000 nM. Besides, in data set [23], the “ChAT Fold Increase, 0.2 µM D3” value is 1.23 fold; the “ChAT Fold Increase, 0.2 µM D3 + 10 pM NGF” value is 2 fold; the “ChAT Fold Increase, 2 µM D3” value came out at 1.47 fold; the “ChAT Fold Increase, 2 µM D3 + 10 pM NGF” value turned out to be 2.53 fold. For the same molecule, in data set [23], the “ChAT Fold Increase, 20 µM D3” value was found to be 1.56 fold and the “ChAT Fold Increase, 20 µM D3 + 10 pM NGF” value was 2.63 fold. In data set [24], the % Protection (MTT, 4-3.6 cells), 10 µM D3 amounted to 8%; the % Protection (MTT, 4-3.6 cells), 10 µM D3 + 10 pM NGF was determined as 55%; the % Protection (MTT, NIH-TrkA), 10 µM D3 stood at 8%; the % Protection (MTT, NIH-TrkA), 10 µM D3 + 10 pM NGF is 51%. Besides, in data set [24], the Optical Density (MTT survival, 4-3.6 cells), 10 µM D3 is 95 OD; the Optical Density (MTT survival, 4-3.6 cells), 10 µM D3 + 10 pM NGF amounted to 255 OD; the intensity of the Mr 300 kDa band (putative TrkA·TrkA dimers) after cross-linking, standardized to 1 nM NGF (100%), 10 pM NGF + 10 µM D3 worked out at 77%; the intensity of the Mr 300 kDa band (putative TrkA·TrkA dimers) after cross-linking, standardized to 1 nM NGF (100%), 10 µM D3 alone amounted to 21%. The molecule further yielded a % Maximal binding of mAb MC192 in data set [25] of 101%.
